Experimental findings from PMC6534608, “Rational design of a hypoallergenic Phl p 7 variant for immunotherapy of polcalcin-sensitized patients” (Scientific Reports, 2019) are described below.

Data set [1] concerns the target recombinant Phl p 7 mutant (hypoallergenic variant, four calcium-coordinating residues replaced by alanine) (timothy grass). In words: SEC; size exclusion chromatography (Yarra SEC-X150) coupled to a UV detector (230 nm) and ICPMS; 10 mM Tris, 50 mM ammonium sulfate, pH 7.5; 30 °C; apparent molecular masses.
Data set [2] concerns the molecule itself. The description is as above.

For orientation: stoichiometry N means a count of units in the complex or per binding partner. On to “recombinant Phl p 7 mutant (hypoallergenic variant, four calcium-coordinating residues replaced by alanine) (natural protein)”, for which the stoichiometry N in data set [1] worked out at 2.

B1: recombinant wildtype Phl p 7 (timothy grass pollen polcalcin) (natural protein)
chain: ADDMERIFKRFDTNGDGKISLSELTDALRTLGSTSADEVQRMMAEIDTDGDGFIDFNEFISFCNANPGLMKDVAKVF
notes: codon-optimized synthetic gene in pET17b (NdeI/EcoRI); also called rPhl p 7 wildtype; Phl p 7 wildtype; source: E. coli BL21(DE3), purified (anion-exchange chromatography, HiTrap Q FF)
For the molecule B1, the “stoichiometry N” value in data set [2] is 2.
